{"source": "the supplement of paper PMC10567573", "parents": {"B1": {"name": "MNAT1 (parent)", "chain": "LAPIHKLEEALYEYQPLQIETYGP"}}, "data": [{"variants_of": "B1", "experiment": "protein stability index of a GFP-peptide fusion (GPS, HEK-293T) (PSI 1-6); higher = more stable", "details": "c terminus: a fixed tail appended", "values": [{"variant": "LAPIHKLEEALYEYQPLQIQTYGP", "note": "[E20Q]", "protein stability index": 2.19}, {"variant": "LAIIHKLEEALYEYQPLQIETYGP", "note": "[P3I]", "protein stability index": 2.72}, {"variant": "LAFIHKLEEALYEYQPLQIETYGP", "note": "[P3F]", "protein stability index": 2.67}, {"variant": "LAHIHKLEEALYEYQPLQIETYGP", "note": "[P3H]", "protein stability index": 1.87}, {"variant": "LAVIHKLEEALYEYQPLQIETYGP", "note": "[P3V]", "protein stability index": 2.7}, {"variant": "LATIHKLEEALYEYQPLQIETYGP", "note": "[P3T]", "protein stability index": 2.32}, {"variant": "LAGIHKLEEALYEYQPLQIETYGP", "note": "[P3G]", "protein stability index": 2.02}, {"variant": "LAQIHKLEEALYEYQPLQIETYGP", "note": "[P3Q]", "protein stability index": 1.67}, {"variant": "LACIHKLEEALYEYQPLQIETYGP", "note": "[P3C]", "protein stability index": 1.53}, {"variant": "LAPIHKLEEALYEYQPLQIETPGP", "note": "[Y22P]", "protein stability index": 2.88}, {"variant": "LAPIHKLEEALYEYQPLQIETWGP", "note": "[Y22W]", "protein stability index": 2.1}, {"variant": "LAPIHKLEEALYEYQPLQIETQGP", "note": "[Y22Q]", "protein stability index": 2.66}, {"variant": "LAPIHKLEEALYEYQPLQIETCGP", "note": "[Y22C]", "protein stability index": 1.96}, {"variant": "LAPIHKLEEALYEYQPLQIETFGP", "note": "[Y22F]", "protein stability index": 3.02}, {"variant": "LAPIHKLEEALYEYQPLQIETLGP", "note": "[Y22L]", "protein stability index": 2.63}, {"variant": "LAPIHKLEEALYEYQPLQIETRGP", "note": "[Y22R]", "protein stability index": 1.73}, {"variant": "LAPIHKLEEAHYEYQPLQIETYGP", "note": "[L11H]", "protein stability index": 2.54}, {"variant": "LAPIHKLEEAWYEYQPLQIETYGP", "note": "[L11W]", "protein stability index": 2.14}, {"variant": "LAPIHKLEEANYEYQPLQIETYGP", "note": "[L11N]", "protein stability index": 3.41}, {"variant": "LAPIHKLEEAEYEYQPLQIETYGP", "note": "[L11E]", "protein stability index": 3.57}, {"variant": "LAPIHKLEEAKYEYQPLQIETYGP", "note": "[L11K]", "protein stability index": 3.38}, {"variant": "LAPIHKLEEAYYEYQPLQIETYGP", "note": "[L11Y]", "protein stability index": 2.42}, {"variant": "LAPIHKLEEAQYEYQPLQIETYGP", "note": "[L11Q]", "protein stability index": 3.23}, {"variant": "LAPIHKLEEAPYEYQPLQIETYGP", "note": "[L11P]", "protein stability index": 3.17}, {"variant": "LAPIHKLEEADYEYQPLQIETYGP", "note": "[L11D]", "protein stability index": 3.71}, {"variant": "LAPIHKLEEARYEYQPLQIETYGP", "note": "[L11R]", "protein stability index": 2.77}, {"variant": "LAPIHKCEEALYEYQPLQIETYGP", "note": "[L7C]", "protein stability index": 2.69}, {"variant": "LAPIHKVEEALYEYQPLQIETYGP", "note": "[L7V]", "protein stability index": 2.76}, {"variant": "LAPIHKNEEALYEYQPLQIETYGP", "note": "[L7N]", "protein stability index": 2.72}, {"variant": "LAPIHKQEEALYEYQPLQIETYGP", "note": "[L7Q]", "protein stability index": 2.97}, {"variant": "LAPIHKDEEALYEYQPLQIETYGP", "note": "[L7D]", "protein stability index": 4.04}, {"variant": "LAPIHKMEEALYEYQPLQIETYGP", "note": "[L7M]", "protein stability index": 3.05}, {"variant": "LAPIHKFEEALYEYQPLQIETYGP", "note": "[L7F]", "protein stability index": 2.37}, {"variant": "LAPIHKHEEALYEYQPLQIETYGP", "note": "[L7H]", "protein stability index": 3.55}, {"variant": "LAPIHKTEEALYEYQPLQIETYGP", "note": "[L7T]", "protein stability index": 3.33}, {"variant": "LAPIHKLEEILYEYQPLQIETYGP", "note": "[A10I]", "protein stability index": 2.1}, {"variant": "LAPIHKLEEWLYEYQPLQIETYGP", "note": "[A10W]", "protein stability index": 1.8}, {"variant": "LAPIHKLEEMLYEYQPLQIETYGP", "note": "[A10M]", "protein stability index": 1.45}, {"variant": "LAPIHKLEELLYEYQPLQIETYGP", "note": "[A10L]", "protein stability index": 1.69}, {"variant": "LAPIHKLREALYEYQPLQIETYGP", "note": "[E8R]", "protein stability index": 2.26}, {"variant": "LAPIHKLWEALYEYQPLQIETYGP", "note": "[E8W]", "protein stability index": 3.45}, {"variant": "LAPIHKLHEALYEYQPLQIETYGP", "note": "[E8H]", "protein stability index": 1.67}, {"variant": "LAPIHKLNEALYEYQPLQIETYGP", "note": "[E8N]", "protein stability index": 1.8}, {"variant": "LAPIHKLSEALYEYQPLQIETYGP", "note": "[E8S]", "protein stability index": 1.75}, {"variant": "PAPIHKLEEALYEYQPLQIETYGP", "note": "[L1P]", "protein stability index": 2.3}, {"variant": "WAPIHKLEEALYEYQPLQIETYGP", "note": "[L1W]", "protein stability index": 2.56}, {"variant": "EAPIHKLEEALYEYQPLQIETYGP", "note": "[L1E]", "protein stability index": 2.52}, {"variant": "SAPIHKLEEALYEYQPLQIETYGP", "note": "[L1S]", "protein stability index": 2.62}, {"variant": "AAPIHKLEEALYEYQPLQIETYGP", "note": "[L1A]", "protein stability index": 2.28}, {"variant": "LAPIHKLEEALYEYQPLQIETYLP", "note": "[G23L]", "protein stability index": 2.56}, {"variant": "LAPIHKLEEALYEYQPLQIETYRP", "note": "[G23R]", "protein stability index": 1.15}, {"variant": "LAPIHKLEEALYEYQPLQIETYTP", "note": "[G23T]", "protein stability index": 1.3}, {"variant": "LAPIHKLEEALYEYQPLQIETYWP", "note": "[G23W]", "protein stability index": 1.14}, {"variant": "LAPIHKLEEALYEYQPLQIETYAP", "note": "[G23A]", "protein stability index": 2.16}, {"variant": "LAPIHKLEEALYEYQPLQIETYNP", "note": "[G23N]", "protein stability index": 1.85}, {"variant": "LAPIHKLEEALYEYQPLQIETYEP", "note": "[G23E]", "protein stability index": 1.86}, {"variant": "LAPIHKLEEALYEYQPLQIETYIP", "note": "[G23I]", "protein stability index": 2.07}, {"variant": "LAPIHKLEEALYEYQPLQIETYVP", "note": "[G23V]", "protein stability index": 2.79}, {"variant": "LAPIHKLEEALYEYQPLQIETYFP", "note": "[G23F]", "protein stability index": 1.92}, {"variant": "LAPIHKLEEALYEYQPLQIETYGN", "note": "[P24N]", "protein stability index": 2.52}, {"variant": "LAPIHKLEEALYEYQPLQIETYGM", "note": "[P24M]", "protein stability index": 1.25}, {"variant": "LAPIHKLEEALYEYQPLQIETYGC", "note": "[P24C]", "protein stability index": 2.67}, {"variant": "LAPIHKLEEALYEYQPLQIETYGD", "note": "[P24D]", "protein stability index": 1.95}, {"variant": "LAPIHKLEEALYEYQPLQIETYGI", "note": "[P24I]", "protein stability index": 2.04}, {"variant": "LAPIHKLEEALYEYQPLQIETYGG", "note": "[P24G]", "protein stability index": 1.82}, {"variant": "LAPIHKLEEALYEYQDLQIETYGP", "note": "[P16D]", "protein stability index": 2.86}, {"variant": "LAPIHKLEEALYEYQLLQIETYGP", "note": "[P16L]", "protein stability index": 1.88}, {"variant": "LAPIHKLEEALYEYQNLQIETYGP", "note": "[P16N]", "protein stability index": 2.94}, {"variant": "LAPIHKLEEALYEYQALQIETYGP", "note": "[P16A]", "protein stability index": 2.43}, {"variant": "LAPIHKLEEALYEYQCLQIETYGP", "note": "[P16C]", "protein stability index": 2.06}, {"variant": "LAPIHKLEEALYEYQKLQIETYGP", "note": "[P16K]", "protein stability index": 1.92}, {"variant": "LAPIHKLEEALYEYQILQIETYGP", "note": "[P16I]", "protein stability index": 2.79}, {"variant": "LAPIHKLEEALYEYQGLQIETYGP", "note": "[P16G]", "protein stability index": 2.35}, {"variant": "LAPIHKLEEALYEYQMLQIETYGP", "note": "[P16M]", "protein stability index": 1.85}, {"variant": "LAPIHKLEEALYEYQRLQIETYGP", "note": "[P16R]", "protein stability index": 2.02}, {"variant": "LAPIHKLEEALYEYQFLQIETYGP", "note": "[P16F]", "protein stability index": 1.44}, {"variant": "LAPISKLEEALYEYQPLQIETYGP", "note": "[H5S]", "protein stability index": 2.11}, {"variant": "LAPIFKLEEALYEYQPLQIETYGP", "note": "[H5F]", "protein stability index": 2.03}, {"variant": "LAPIKKLEEALYEYQPLQIETYGP", "note": "[H5K]", "protein stability index": 2.62}, {"variant": "LAPIAKLEEALYEYQPLQIETYGP", "note": "[H5A]", "protein stability index": 2.17}, {"variant": "LAPIYKLEEALYEYQPLQIETYGP", "note": "[H5Y]", "protein stability index": 1.61}, {"variant": "LAPIRKLEEALYEYQPLQIETYGP", "note": "[H5R]", "protein stability index": 2.56}, {"variant": "LAPIMKLEEALYEYQPLQIETYGP", "note": "[H5M]", "protein stability index": 1.71}, {"variant": "LAPIVKLEEALYEYQPLQIETYGP", "note": "[H5V]", "protein stability index": 1.49}, {"variant": "LAPIEKLEEALYEYQPLQIETYGP", "note": "[H5E]", "protein stability index": 1.92}, {"variant": "LAPIWKLEEALYEYQPLQIETYGP", "note": "[H5W]", "protein stability index": 2.34}, {"variant": "LAPIPKLEEALYEYQPLQIETYGP", "note": "[H5P]", "protein stability index": 1.84}, {"variant": "LAPITKLEEALYEYQPLQIETYGP", "note": "[H5T]", "protein stability index": 1.59}, {"variant": "LAPIDKLEEALYEYQPLQIETYGP", "note": "[H5D]", "protein stability index": 2.33}, {"variant": "LAPIHKLEEALYQYQPLQIETYGP", "note": "[E13Q]", "protein stability index": 1.43}, {"variant": "LAPIHKLEEALYKYQPLQIETYGP", "note": "[E13K]", "protein stability index": 1.83}, {"variant": "LAPIHKLEEALYHYQPLQIETYGP", "note": "[E13H]", "protein stability index": 2.7}, {"variant": "LAPIHKLEEALYVYQPLQIETYGP", "note": "[E13V]", "protein stability index": 2.04}, {"variant": "LAPIHKLEEALYMYQPLQIETYGP", "note": "[E13M]", "protein stability index": 2.49}]}]}
